Measurements reported in US8404647B2, “Peptidylarginine deiminase (PAD) inhibitors” (Chiralix B.V., priority 2008, dated 2013).
Marks after values point to notes of the source that are not given here. Ends that are not written are not given here.

Columns and labels:
PAD2 = PAD2 (Homo sapiens, UniProt Q9Y2J8); experiment: Conversion (R to Cit) of substrate peptides by PAD2, mass spectrometry; type: biochemical; conditions: for Conversion by PAD2 (%): Table 10; for Conversion (%): Table 9, PAD2
Description: In a similar fashion as for PAD4 we identified improved peptide substrates for PAD2. Again L1 was used as a lead compound. The set of 152 peptides from Table 3 was used and testing was performed as described before.
(§1) Conversion of arginine into citrulline in the substrate peptides by PAD2 or PAD4 using mass spectrometry was performed as follows. A candidate substrate peptide was incubated with a PAD as indicated for several hours at 37° C. The reaction was quenched by the addition with acetic acid. A sample was analysed on a Qtof mass spectrometer (Micromass, UK) and the mass spectrum was compared with that of the same peptide not treated with PAD. Normally, 2^+- and 3^+-ions are detected. The conversion (ΔM=0.98 Da) was calculated on the 2^+- and 3^+-ions individually, and subsequently averaged taking into account the relative peak height of the 2^+- and 3^+-signals (see FIG. 5).

PAD4 = PAD4 (Homo sapiens, UniProt Q9UM07); experiment: Conversion (R to Cit) of substrate peptides by PAD4, mass spectrometry; type: biochemical; conditions: for Conversion (%): PAD4; for Conversion by PAD4 (%): Table 10; for Conversion: Table 7, PAD4, test system with 3 times less enzyme
From the text: From previous studies it was known that D-S-Q-F-A-F-R-G-A-S-A-S-D (designated here as L1: SEQ ID NO: 11) is a substrate for PAD2 and PAD 4. To obtain better substrates, and subsequently powerful inhibitors, we intended to identify structural elements that improve substrate properties. A set of 152 individual analog peptides was generated, each differing from L1 by one amino acid at one of the positions −4 to −1 or 1 to 4.
In Table 3 the conversion of each analog (R to Cit conversion) is depicted. Values of the analogs relate to the conversion of the analog compared to the conversion of L1 under standard conditions (100 means a conversion equal to L1, 50 means conversion of 50% of that of L1, 175 means conversion of 175% of that of L1). Numbers above 100 thus relate to amino acid substitutions that improve substrate properties.
Peptides of table 4 are represented by the following sequences SEQ ID NO: 22-31 and 33-46. Control peptide are represented by the following sequences SEQ ID NO: 11 as control L1 and SEQ ID NO: 32 as control L2. Unfortunately, a substantial number of designed peptides were too polar to be analyzed on our LC-MS system (indicated in Table 4 as n.t., not trapped on the column). We therefore also generated and tested these peptides containing two additional N-terminal F-residues to increase hydrophobicity. In this form peptides were trapped on the column and could be analyzed (see Table 5).
Based on the above results we designed 20 peptides containing multiple amino acids that improve substrate properties (see Table 7). The indicated peptides were synthesized and tested in order to identify the best substrate from this group. Here we used a test system with less enzyme (3 times less) compared to the experiments described above.
as §1

[1] = Table 5, peptides with two additional N-terminal F-residues

Sequence of PAD4 (Q9UM07 whole entry): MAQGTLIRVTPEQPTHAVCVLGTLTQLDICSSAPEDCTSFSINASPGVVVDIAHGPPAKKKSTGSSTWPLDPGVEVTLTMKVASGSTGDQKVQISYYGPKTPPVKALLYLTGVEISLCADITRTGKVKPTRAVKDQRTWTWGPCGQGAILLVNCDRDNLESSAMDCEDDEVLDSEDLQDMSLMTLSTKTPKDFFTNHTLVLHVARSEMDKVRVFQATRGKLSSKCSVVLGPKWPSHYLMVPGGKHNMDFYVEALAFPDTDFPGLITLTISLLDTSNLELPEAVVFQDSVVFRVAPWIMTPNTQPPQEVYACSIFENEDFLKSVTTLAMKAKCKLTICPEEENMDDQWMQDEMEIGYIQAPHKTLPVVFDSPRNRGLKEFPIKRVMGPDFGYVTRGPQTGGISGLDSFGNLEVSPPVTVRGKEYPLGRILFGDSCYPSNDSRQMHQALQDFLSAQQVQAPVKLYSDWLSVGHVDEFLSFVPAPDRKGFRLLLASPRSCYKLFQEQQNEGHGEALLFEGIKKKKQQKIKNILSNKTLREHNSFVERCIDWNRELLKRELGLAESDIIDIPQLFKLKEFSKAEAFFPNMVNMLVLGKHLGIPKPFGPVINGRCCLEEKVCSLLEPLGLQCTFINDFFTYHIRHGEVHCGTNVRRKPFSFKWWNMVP
Sequence of PAD2 (Q9Y2J8 whole entry): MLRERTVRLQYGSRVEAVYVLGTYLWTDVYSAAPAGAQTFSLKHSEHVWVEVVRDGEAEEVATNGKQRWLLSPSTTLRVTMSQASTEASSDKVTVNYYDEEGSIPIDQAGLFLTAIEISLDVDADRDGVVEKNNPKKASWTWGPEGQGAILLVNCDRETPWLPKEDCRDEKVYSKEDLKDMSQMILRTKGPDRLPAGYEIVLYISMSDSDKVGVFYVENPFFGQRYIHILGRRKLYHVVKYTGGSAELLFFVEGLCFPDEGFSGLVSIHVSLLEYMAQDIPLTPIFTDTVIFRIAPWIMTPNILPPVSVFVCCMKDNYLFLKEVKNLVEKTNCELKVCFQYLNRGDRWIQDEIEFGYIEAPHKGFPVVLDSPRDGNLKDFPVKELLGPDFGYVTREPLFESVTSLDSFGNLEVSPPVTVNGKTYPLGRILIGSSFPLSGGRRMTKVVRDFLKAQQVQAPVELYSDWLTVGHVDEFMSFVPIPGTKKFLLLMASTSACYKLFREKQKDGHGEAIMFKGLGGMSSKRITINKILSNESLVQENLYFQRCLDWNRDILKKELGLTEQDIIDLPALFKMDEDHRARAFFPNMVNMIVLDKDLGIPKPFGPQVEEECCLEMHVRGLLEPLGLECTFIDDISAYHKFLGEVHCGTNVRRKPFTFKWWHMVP

Substance | Conversion by PAD2 (%) (PAD2) | Conversion (%) (PAD4; Table 4, 13-mer peptides) | Conversion by PAD4 (%) (PAD4) | Conversion (PAD4) | conversion of L2 analogs by PAD4 (PAD4; relative to conversion of L2 (L2 = 100), single substitution at positions -4 to 4) | Conversion (%) (PAD2) | Conversion (%) (PAD4; [1])
D-S-K-H-L-S-R-E-W-M-W-S-D (DSKHLSREWMWSD; not fully specified (C-terminus); printed as D-S-K-H-L-S-R-E-W-M-W-S-D) [Peptide 0608-24] | 95% | 90% | 54% |  |  |  | 
D-S-K-K-F-D-R-D-H-L-Y-S-D (DSKKFDRDHLYSD; not fully specified (C-terminus); printed as D-S-K-K-F-D-R-D-H-L-Y-S-D) [Peptide 0708-15] | 90% |  | 77% | 51 |  |  | 
D-S-K-K-F-D-R-G-H-L-Y-S-D (DSKKFDRGHLYSD; not fully specified (C-terminus); printed as D-S-K-K-F-D-R-G-H-L-Y-S-D) [Peptide 0708-30] | 90% |  | 80% | 63 |  |  | 
D-S-K-K-F-H-R-D-F-L-Y-S-D (DSKKFHRDFLYSD; not fully specified (C-terminus); printed as D-S-K-K-F-H-R-D-F-L-Y-S-D) [Peptide 0708-25] | 97% |  | 64% | 56 |  |  | 
D-S-K-K-F-H-R-G-F-L-Y-S-D (DSKKFHRGFLYSD; not fully specified (C-terminus); printed as D-S-K-K-F-H-R-G-F-L-Y-S-D) [Peptide 0708-33] | 100% |  | 73% | 60 |  |  | 
D-S-K-K-F-K-R-D-F-L-F-S-D (DSKKFKRDFLFSD; not fully specified (C-terminus); printed as D-S-K-K-F-K-R-D-F-L-F-S-D) [Peptide 0708-26] | 97% |  | 35% | 23 |  |  | 
D-S-K-K-H-D-R-D-F-L-Y-S-D (DSKKHDRDFLYSD; not fully specified (C-terminus); printed as D-S-K-K-H-D-R-D-F-L-Y-S-D) [Peptide 0608-31] | 84(=L2) % | 100% (=L2) | 58(=L2) % | 45 (=L2) | 100% |  | 
D-S-K-K-H-D-R-D-H-L-W-S-D (DSKKHDRDHLWSD; not fully specified (C-terminus); printed as D-S-K-K-H-D-R-D-H-L-W-S-D) [Peptide 0708-20] | 95% |  | 80% | 62 |  |  | 
D-S-K-K-H-F-R-D-K-L-Y-S-D (DSKKHFRDKLYSD; not fully specified (C-terminus); printed as D-S-K-K-H-F-R-D-K-L-Y-S-D) [Peptide 0708-22] | 92% |  | 37% | 43 |  |  | 
D-S-K-K-H-F-R-G-K-L-Y-S-D (DSKKHFRGKLYSD; not fully specified (C-terminus); printed as D-S-K-K-H-F-R-G-K-L-Y-S-D) [Peptide 0708-32] | 96% |  | 22% | 24 |  |  | 
D-S-K-K-K-H-R-E-W-V-W-S-D (DSKKKHREWVWSD; not fully specified (C-terminus); printed as D-S-K-K-K-H-R-E-W-V-W-S-D) [Peptide 0608-32] | 100% |  | 72% |  |  |  | 
D-S-K-K-L-H-R-D-H-M-E-S-D (DSKKLHRDHMESD; not fully specified (C-terminus); printed as D-S-K-K-L-H-R-D-H-M-E-S-D) [Peptide 0608-29] | 90% |  | 65% |  |  |  | 
D-S-K-K-Y-D-R-D-F-L-W-S-D (DSKKYDRDFLWSD; not fully specified (C-terminus); printed as D-S-K-K-Y-D-R-D-F-L-W-S-D) [Peptide 0708-29] | 92% |  | 76% | 61 |  |  | 
D-S-K-K-Y-D-R-G-F-L-W-S-D (DSKKYDRGFLWSD; not fully specified (C-terminus); printed as D-S-K-K-Y-D-R-G-F-L-W-S-D) [Peptide 0708-34] | 93% |  | 81% | 64 |  |  | 
D-S-K-W-H-H-R-D-H-L-Y-S-D (DSKWHHRDHLYSD; not fully specified (C-terminus); printed as D-S-K-W-H-H-R-D-H-L-Y-S-D) [Peptide 0708-18] | 90% |  | 71% | 60 |  |  | 
D-S-K-W-H-H-R-G-H-L-Y-S-D (DSKWHHRGHLYSD) [Peptide 0708-31] | 96% |  | 71% | 52 |  |  | 
D-S-K-W-Y-H-R-N-K-F-W-S-D (DSKWYHRNKFWSD) [Peptide 0735-27] | 98% |  | 45% |  |  | 98% | 
D-S-Q-W-A-F-R-H-A-L-F-S-D (DSQWAFRHALFSD) [Peptide 0735-37] | 95% |  | <20% |  |  | 95% | 
F-F-D-S-H-K-F-D-R-D-F-I-Y-S-D (FFDSHKFDRDFIYSD) [Peptide 0612-45] | 97 ** % |  | 94% |  |  |  | 100%
F-F-D-S-H-K-H-S-R-E-W-L-W-S-D (FFDSHKHSREWLWSD) [Peptide 0612-38] | 96% |  | 72% |  |  |  | 100%
F-F-D-S-H-K-K-S-R-E-Y-V-F-S-D (FFDSHKKSREYVFSD) [Peptide 0612-44] | 100% |  | 58% |  |  |  | 100%
F-F-D-S-H-K-L-H-R-E-W-M-W-S-D (FFDSHKLHREWMWSD) [Peptide 0612-46] | 92 ** % |  | 91% |  |  |  | 100%
F-F-D-S-H-K-W-H-R-D-F-F-Y-S-D (FFDSHKWHRDFFYSD) [Peptide 0612-37] | 96 ** % |  | 88% |  |  |  | 100%
F-F-D-S-K-H-F-D-R-E-W-I-W-S-D (FFDSKHFDREWIWSD) [Peptide 0612-30] | 94 ** % |  | 89% |  |  |  | 100%
F-F-D-S-K-H-K-S-R-D-F-V-Y-S-D (FFDSKHKSRDFVYSD) [Peptide 0612-29] | 92% |  | 77% |  |  |  | 100%
F-F-D-S-K-H-L-S-R-E-W-M-W-S-D (FFDSKHLSREWMWSD) [Peptide 0612-26] | 97% |  | 73% |  |  |  | 100%
F-F-D-S-K-K-F-S-R-D-H-I-E-S-D (FFDSKKFSRDHIESD) [Peptide 0612-35] | 90% |  | 63% |  |  |  | 97%
F-F-D-S-K-K-K-H-R-E-W-V-W-S-D (FFDSKKKHREWVWSD) [Peptide 0612-34] | 99% |  | 76% |  |  |  | 100%
F-F-D-S-K-K-W-S-R-E-Y-F-F-S-D (FFDSKKWSREYFFSD) [Peptide 0612-32] | 94% |  | 76% |  |  |  | 100%
